Experimental data published in the supplement of paper PMC10724198.
± gives the standard deviation of the averaged measurements.

System: Saccharomyces cerevisiae
Assay: protein stability index of tFT-peptide fusion (C-terminal peptide) (PSI (0-1 scale)); higher = more stable (slower turnover)
Details: genetic background: wild type; temperature: 30 C
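Further: PSI is a weighted mean of sequencing reads over stability bins, variants kept only with over 10 reads, mCherry proximal and sfGFP distal, peptide attached via GGGS linker.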

Compared with VFAHCSRHRGST, VFDCLCGLRPGF is lower in protein stability index: 0.7103 ± 0.0029 for the first, 0.632 ± 0.026 for the second.

VFDGSVSWARHD and VFGFLGSLASCR are within error of each other in protein stability index: 0.6529 ± 0.0053 for the first, 0.853 ± 0.2 for the second.

VFHLATSVRRRY and VFLLSDVCGLGL are within error of each other in protein stability index: 0.672 ± 0.051 for the first, 0.583 ± 0.2 for the second.

First: VFLVDCFGVCFL
Second: VFMWRIRRRLVR
The protein stability index of the first is higher: 0.784 ± 0.048 for the first, 0.598 ± 0.02 for the second.

Compared with VFPPLSRLLPGP, VFTGVGFVPLVC is lower in protein stability index: 0.699 ± 0.1 for the first, 0.5757 ± 0.0034 for the second.

First: VGAGRGKWRGGG
Second: VGAGVAGGASVS
The protein stability index of the first is higher: 0.6591 ± 0.0013 for the first, 0.613 ± 0.027 for the second.

VGAIGYWCPEWR and VGAPPCYPVSRL are within error of each other in protein stability index: 0.651 ± 0.019 for the first, 0.74 ± 0.24 for the second.

VGCPGGVWVFRG and VGCTSFWLAILR are within error of each other in protein stability index: 0.535 ± 0.011 for the first, 0.56 ± 0.026 for the second.

Compared with VGDGLGWGGQGG, VGEIMREVKGPD is higher in protein stability index: 0.678 ± 0.03 for the first, 0.72 ± 0.0079 for the second.

First: VGFDFLFRFFFL
Second: VGFFGMGVLPEG
The protein stability index of the first is lower: 0.628 ± 0.037 for the first, 0.741 ± 0.013 for the second.

VGFSLGGFLFLF and VGGCLFQLSSGY are within error of each other in protein stability index: 0.585 ± 0.096 for the first, 0.683 ± 0.035 for the second.

Compared with VGGGASGVGRSG, VGGGGERGRGGS is higher in protein stability index: 0.63009 ± 0.00033 for the first, 0.687 ± 0.01 for the second.

First: VGGGRAALRWYG
Second: VGGGRFCGCLVV
The protein stability index of the first is lower: 0.673 ± 0.018 for the first, 0.767 ± 0.015 for the second.

First: VGGGRRGGVGEG
Second: VGGRAAIGRGGW
The protein stability index of the first is lower: 0.652 ± 0.021 for the first, 0.706 ± 0.012 for the second.

VGGRLLFVGKRG and VGGRMGVDEGKG are the same in protein stability index: 0.669 ± 0.051 for the first, 0.669 ± 0.02 for the second.

VGGRRCVCVWWL and VGHGGRRGVGGW are within error of each other in protein stability index: 0.674 ± 0.016 for the first, 0.612 ± 0.057 for the second.

VGICCCKTYCCS and VGIFSLLRCRGE are within error of each other in protein stability index: 0.656 ± 0.074 for the first, 0.701 ± 0.035 for the second.

VGIQQSVVVRLE and VGKHNLYSKNWR are within error of each other in protein stability index: 0.6685 ± 0.0034 for the first, 0.66 ± 0.016 for the second.

First: VGKSNKYEETHK
Second: VGLGAGGTSLMR
The protein stability index of the first is higher: 0.747 ± 0.06 for the first, 0.571 for the second.

VGLGEGGGVGEG and VGLLQRSLAFVL are within error of each other in protein stability index: 0.678 ± 0.079 for the first, 0.612 ± 0.031 for the second.

VGMAGWSRVRWG and VGMVTADGRLAT are within error of each other in protein stability index: 0.715 ± 0.0089 for the first, 0.692 ± 0.043 for the second.

VGNNERDLQQIE and VGRSAAGRLELI are within error of each other in protein stability index: 0.665 ± 0.032 for the first, 0.679 ± 0.014 for the second.

VGSGFGGAGVIG and VGSRWNKELSQS are within error of each other in protein stability index: 0.696 ± 0.045 for the first, 0.725 ± 0.081 for the second.

VGSSPYTVFVSG and VGTRVGCEAGVV are within error of each other in protein stability index: 0.747 ± 0.11 for the first, 0.637 ± 0.095 for the second.

VGVATRGVGGGM and VGVGRAALRWYG are within error of each other in protein stability index: 0.669 ± 0.032 for the first, 0.6716 ± 0.0035 for the second.

First: VGVGRGALRWYG
Second: VGVKLVVEAIRR
The protein stability index of the first is higher: 0.704 ± 0.014 for the first, 0.6322 ± 0.0039 for the second.

VGVLRTSRASPH and VGVLSYYTCYEL are within error of each other in protein stability index: 0.646 ± 0.031 for the first, 0.689 ± 0.18 for the second.

VGVSGCVLWYRV and VGWGLGGGVVLV are within error of each other in protein stability index: 0.692 ± 0.031 for the first, 0.675 ± 0.047 for the second.

VGWRGTGCGRVW and VGWRWGRGRAVW are within error of each other in protein stability index: 0.688 ± 0.074 for the first, 0.728 ± 0.067 for the second.

VGWWVAVGWGLG and VGYGTGGAGGVE are within error of each other in protein stability index: 0.704 ± 0.067 for the first, 0.766 ± 0.044 for the second.

VHFFHLCFCEIL and VHLAPPLPPTAT are within error of each other in protein stability index: 0.673 ± 0.051 for the first, 0.708 ± 0.021 for the second.

VHVMSPPPALPV and VHWAALRSVLRG are within error of each other in protein stability index: 0.659 ± 0.013 for the first, 0.699 ± 0.047 for the second.

First: VIAGSWVAGVSV
Second: VICSIRGYNRLR
The protein stability index of the first is lower: 0.655 ± 0.011 for the first, 0.711 ± 0.038 for the second.

VIDQRIDIAYFS and VIEWFVRGRGGG are within error of each other in protein stability index: 0.746 ± 0.1 for the first, 0.693 ± 0.01 for the second.

Going from VIGSSGRVGGLG to VILGRGGSICKV, the protein stability index rises from 0.6913 ± 0.0028 to 0.795 ± 0.046.

Going from VIYERDSLRGGI to VKGKKREVTDPR, the protein stability index falls from 0.753 ± 0.038 to 0.6376 ± 0.0023.

VKRSGSDGALHR and VKRVYQRFHVKK are within error of each other in protein stability index: 0.685 ± 0.021 for the first, 0.666 ± 0.04 for the second.

VKSAAGPGRRSS and VKSTRRHGRPQS are within error of each other in protein stability index: 0.66 ± 0.015 for the first, 0.723 ± 0.057 for the second.

VKTLNQKCIKKN and VKYSIEVKRKKK are within error of each other in protein stability index: 0.719 ± 0.062 for the first, 0.7181 ± 0.0039 for the second.

First: VLAHCLFRCEKN
Second: VLAWVPNFALLP
The protein stability index of the first is lower: 0.6062 ± 0.001 for the first, 0.677 ± 0.063 for the second.

In the case of VLDLVPDFSNGG, the protein stability index is reported as 0.65 ± 0.036.
